Laboratory results taken from patent US20210155689A1 (SHANGHAI PHARMAEXPLORER, published 2021).

Key:
[1] = target: human LAG-3 on cells (HEK293-hLAG-3 stable cell line) (human) (UniProt P18627); assay: FACS, HEK293-hLAG-3, antibody 0 nM
[2] = target: LAG-3-hFc protein (human LAG-3 extracellular region with hFc tag) (human) (UniProt P18627); assay: ELISA, inhibition of LSECtin-His binding to coated LAG-3-hFc, antibody 200.000 nM, replicate 2
[3] = target: human LAG-3 on cells (HEK293-hLAG-3 stable cell line) (human) (UniProt P18627); assay: cell-based or functional assay
[4] = target: human LAG-3 on cells (HEK293-hLAG-3 stable cell line) (human) (UniProt P18627); assay: FACS, HEK293-hLAG-3, antibody 0.013 nM
[5] = target: LAG-3-hFc protein (human LAG-3 extracellular region with hFc tag) (human) (UniProt P18627); assay: ELISA, inhibition of LSECtin-His binding to coated LAG-3-hFc, antibody 200.000 nM, replicate 1
[6] = target: monkey LAG-3 on cells (HEK293-cLAG-3 stable cell line) (monkey); assay: FACS, HEK293-cLAG-3, antibody 0.064 nM
Chain of monkey LAG-3 on cells (HEK293-cLAG-3 stable cell line) (monkey) (P18627 other isoform, or with tags, fused parts or gaps limits assumed): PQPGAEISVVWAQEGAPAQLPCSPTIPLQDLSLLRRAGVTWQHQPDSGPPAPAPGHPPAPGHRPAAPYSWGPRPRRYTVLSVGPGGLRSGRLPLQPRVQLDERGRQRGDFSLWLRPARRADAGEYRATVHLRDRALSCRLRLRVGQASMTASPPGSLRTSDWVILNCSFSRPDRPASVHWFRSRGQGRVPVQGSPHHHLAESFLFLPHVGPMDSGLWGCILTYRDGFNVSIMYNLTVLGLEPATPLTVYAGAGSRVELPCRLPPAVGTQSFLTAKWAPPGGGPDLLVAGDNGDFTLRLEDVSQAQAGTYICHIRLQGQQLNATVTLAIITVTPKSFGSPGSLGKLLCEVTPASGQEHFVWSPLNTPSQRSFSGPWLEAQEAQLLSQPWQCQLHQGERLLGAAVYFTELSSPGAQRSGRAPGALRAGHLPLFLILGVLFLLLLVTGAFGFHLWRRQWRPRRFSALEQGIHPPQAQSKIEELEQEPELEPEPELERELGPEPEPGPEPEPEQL

[7] = target: LAG-3-hFc protein (human LAG-3 extracellular region with hFc tag) (human) (UniProt P18627); assay: FACS, inhibition of LAG-3-hFc binding to MHC II on Raji cells, antibody 0.823 nM
[8] = target: monkey LAG-3 on cells (HEK293-cLAG-3 stable cell line) (monkey); assay: FACS, HEK293-cLAG-3, antibody 0.320 nM
[9] = target: human LAG-3 on cells (HEK293-hLAG-3 stable cell line) (human) (UniProt P18627); assay: FACS, HEK293-hLAG-3, antibody 1.600 nM
[10] = target: LAG-3-hFc protein (human LAG-3 extracellular region with hFc tag) (human) (UniProt P18627); assay: FACS, inhibition of LAG-3-hFc binding to MHC II on Raji cells, antibody 22.222 nM
[11] = target: LAG-3-hFc protein (human LAG-3 extracellular region with hFc tag) (human) (UniProt P18627); assay: ELISA, inhibition of LSECtin-His binding to coated LAG-3-hFc, antibody 0.064 nM, replicate 1
[12] = target: monkey LAG-3 on cells (HEK293-cLAG-3 stable cell line) (monkey); assay: FACS, HEK293-cLAG-3, antibody 0.013 nM
[13] = target: LAG-3-hFc protein (human LAG-3 extracellular region with hFc tag) (human) (UniProt P18627); assay: ELISA, inhibition of LSECtin-His binding to coated LAG-3-hFc, antibody 0.000 nM, replicate 1
[14] = target: LAG-3-hFc protein (human LAG-3 extracellular region with hFc tag) (human) (UniProt P18627); assay: FACS, inhibition of LAG-3-hFc binding to MHC II on Raji cells, antibody 200.000 nM
[15] = target: human LAG-3 on cells (HEK293-hLAG-3 stable cell line) (human) (UniProt P18627); assay: FACS, HEK293-hLAG-3, antibody 40.000 nM
[16] = target: human LAG-3 on cells (HEK293-hLAG-3 stable cell line) (human) (UniProt P18627); assay: FACS, HEK293-hLAG-3, antibody 1.6 nM
[17] = target: human LAG-3 on cells (HEK293-hLAG-3 stable cell line) (human) (UniProt P18627); assay: FACS, HEK293-hLAG-3, antibody 8 nM
[18] = target: T1, human LAG-3 on cells (HEK293-hLAG-3 stable cell line) (human, UniProt P18627 23-525); assay: FACS, HEK293-hLAG-3, antibody 0.013 nM
T1 sequence: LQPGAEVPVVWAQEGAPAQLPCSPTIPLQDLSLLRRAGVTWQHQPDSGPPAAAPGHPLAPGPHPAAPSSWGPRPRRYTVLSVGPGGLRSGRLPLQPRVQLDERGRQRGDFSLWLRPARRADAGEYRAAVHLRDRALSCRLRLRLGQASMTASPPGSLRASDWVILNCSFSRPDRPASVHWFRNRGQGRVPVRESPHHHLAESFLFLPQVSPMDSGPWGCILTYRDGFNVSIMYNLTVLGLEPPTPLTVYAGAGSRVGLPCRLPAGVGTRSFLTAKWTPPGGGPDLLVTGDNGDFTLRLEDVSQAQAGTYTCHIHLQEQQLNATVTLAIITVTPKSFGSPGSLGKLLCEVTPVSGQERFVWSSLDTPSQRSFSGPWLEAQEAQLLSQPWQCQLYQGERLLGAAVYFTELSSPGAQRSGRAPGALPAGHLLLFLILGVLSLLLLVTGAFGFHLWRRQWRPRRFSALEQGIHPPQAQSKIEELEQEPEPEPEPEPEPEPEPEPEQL
Source text: A. The binding of antibodies to LAG-3 expressing cells was detected by Flow cytometry (FACS), wherein the method was according to that of Example 5.

[19] = target: T1, human LAG-3 on cells (HEK293-hLAG-3 …); assay: FACS, HEK293-hLAG-3, antibody 0 nM
[20] = target: T1, human LAG-3 on cells (HEK293-hLAG-3 …); assay: FACS, HEK293-hLAG-3, antibody 0.32 nM
[21] = target: T1, human LAG-3 on cells (HEK293-hLAG-3 …); assay: FACS, HEK293-hLAG-3, antibody 0.013 nM; remark: listed apart in the source

Molecule hIgG control (antibody) has a Mean fluorescence intensity [1] of 4, an Inhibition rate (%) [2] of -2.2% and an IL-2 production, SEB-dependent PBMC stimulation test, 0.0032 ug/ml, N = 1 [3] of 1620 pg/mL. For the same molecule, the IL-2 production, SEB-dependent PBMC stimulation test, 0.0032 ug/ml, N = 2 [3] was 1590 pg/mL, the IL-2 production, SEB-dependent PBMC stimulation test, 0.016 ug/ml, N = 1 [3] was 1220 pg/mL and the IL-2 production, SEB-dependent PBMC stimulation test, 0.016 ug/ml, N = 2 [3] was 1660 pg/mL. It also gave an IL-2 production, SEB-dependent PBMC stimulation test, 0.08 ug/ml, N = 1 [3] of 1020 pg/mL, an IL-2 production, SEB-dependent PBMC stimulation test, 0.08 ug/ml, N = 2 [3] of 1650 pg/mL and an IL-2 production, SEB-dependent PBMC stimulation test, 0.4 ug/ml, N = 1 [3] of 1060 pg/mL. For the same molecule, the IL-2 production, SEB-dependent PBMC stimulation test, 0.4 ug/ml, N = 2 [3] was 1680 pg/mL, the IL-2 production, SEB-dependent PBMC stimulation test, 2 ug/ml, N = 1 [3] was 1130 pg/mL and the IL-2 production, SEB-dependent PBMC stimulation test, 2 ug/ml, N = 2 [3] was 1630 pg/mL. For the same molecule, the IL-2 production, SEB-dependent PBMC stimulation test, 10 ug/ml, N = 1 [3] was 1280 pg/mL, the IL-2 production, SEB-dependent PBMC stimulation test, 10 ug/ml, N = 2 [3] was 1490 pg/mL and the IL-2 production, antigen-specific T lymphocyte stimulation test, 0.016 ug/ml, N = 1 [3] was 336 pg/mL. It also gave an IL-2 production, antigen-specific T lymphocyte stimulation test, 0.016 ug/ml, N = 2 [3] of 298 pg/mL, an IL-2 production, antigen-specific T lymphocyte stimulation test, 0.08 ug/ml, N = 1 [3] of 286 pg/mL and an IL-2 production, antigen-specific T lymphocyte stimulation test, 0.08 ug/ml, N = 2 [3] of 282 pg/mL. The IL-2 production, antigen-specific T lymphocyte stimulation test, 0.4 ug/ml, N = 1 [3] was 322 pg/mL, the IL-2 production, antigen-specific T lymphocyte stimulation test, 0.4 ug/ml, N = 2 [3] was 286 pg/mL and the IL-2 production, antigen-specific T lymphocyte stimulation test, 2 ug/ml, N = 1 [3] was 382 pg/mL. For the same molecule, the IL-2 production, antigen-specific T lymphocyte stimulation test, 2 ug/ml, N = 2 [3] was 317 pg/mL, the IL-2 production, antigen-specific T lymphocyte stimulation test, 10 ug/ml, N = 1 [3] was 338 pg/mL and the IL-2 production, antigen-specific T lymphocyte stimulation test, 10 ug/ml, N = 2 [3] was 277 pg/mL. The Mean fluorescence intensity [4] was 3, the Inhibition rate (%) [5] was 2.6% and the Mean fluorescence intensity [6] was 3.04. For the same molecule, the Inhibition rate (%) [7] was 10.2%, the Mean fluorescence intensity [8] was 3.13 and the Mean fluorescence intensity [9] was 2.7. The Inhibition rate (%) [10] was 19.7%, the Inhibition rate (%) [11] was -26.4% and the Mean fluorescence intensity [12] was 2.87. It also gave an Inhibition rate (%) [13] of 3.1%, an Inhibition rate (%) [14] of 12.3% and a Mean fluorescence intensity [15] of 3.1. For the same molecule, the Mean fluorescence intensity [16] was 4 and the Mean fluorescence intensity [17] was 4.

B1: 405B8H3 mouse-human chimeric antibody (antibody, V domains shown)
VH: QVQLQQSGAELVRPGASVTLSCKASGYTFTDYEMHWVKQTPVHGLEWIGATDPETGNSAYNQKFKGKAIMTADKSSSTAYMELRSLTSEDSAVYYCISTGWNDWGQGTSLTVSS
VL: DIKMTQSPSSMYASLGERVTITCKASQDINSYLSWFQQKPGKSPKTLIYRADRLLDGVPSRFSGSGSGQDYSLTISSLEYGDMGIYYCLQYDEFPYTFGGGTKLEIK
notes: also called mAb103-405B8H3
Molecule B1 has a Mean fluorescence intensity [18] of 9 and a Mean fluorescence intensity [19] of 4.

B2: 556F6B8 mouse-human chimeric antibody (antibody, V domains shown)
VH: RVQLKQSGPGLVQPSQSLSITCTVSGFSLIKYGVHWVRQSPGEGLEWLGVIWRGGITDYNAAFMSRLSITKDNSKSQVFFKMNSLQADDTAIYYCAKWDGPLAMDYWGQGTSVTVSS
VL: DIVMTQSHKFLSTSVGDRVSITCKASQDVGTTVAWYQQKPGQSPKLLIYWASTRHTGVPDRFTGSGSGTDFTLTISNVQSEDLADYFCQQYSSYPYTFGGGTKLEIK
notes: also called mAb123-556F6B8; 556F8B8
Molecule B2 has a Mean fluorescence intensity [20] of 29 and a Mean fluorescence intensity [21] of 6.
